Consider eight substances from US5866544A, “Peptide-chelator conjugates” (Resolution Pharmaceuticals, Inc., priority 1997, dated 1999).

Series [1] has as its system rat inflammation model (E. coli, left hindleg). The experiment in a line: Biodistribution and imaging of Tc-99m labelled conjugates in a rat inflammation model. The following applies: for Blood / Urine / G.I. tract: Tc-99m labelled conjugate i.v.; for inflam muscle: inflamed muscle (left leg); for Uninfl muscle: non-inflamed muscle (right leg); for Inflam:Uninfl: ratio inflamed to uninflamed muscle.

For series [2] the following is noted: in vivo; cited from earlier work.

Where no end group is shown, it is not given here. The star is where a group is joined. Bz‑MA = benzoylmercaptoacetyl chelator, O=C(SCC(=O)*)c1ccccc1; Picolinoyl = O=C(c1ccccn1)*; Acm = CC(=O)NC*

On to “Pic-Ser-Cys(Acm)-Gly-Asp-Gly-TKPPR (Picolinoyl-SC(Acm)GDGTKPPR) [PicSerCys(Acm) GDG TKPPR]”, for which, in series [1] (Time 35 min), the Blood is listed as 0.228 % dose/g, the Urine is listed as 63.1, the inflam muscle stood at 0.166 % dose/g and the Uninfl muscle worked out at 0.034 % dose/g. In addition, the “Inflam:Uninfl” value in series [1] (Time 35 min) came to 4.9.

“PicSerCys(Acm) Gly TKPRTKPR: chelator PicSerCys(Acm), linking group Gly, peptide TKPRTKPR (tuftsin dimer, Seq ID no: 10); comparison conjugate ({Picolinoyl-Ser-Cys(Acm)}-GTKPRTKPR)”: in series [1], the “accumulation in blood, in words” value is “low accumulation”; the “accumulation in the GI tract, in words” value is on record as “low accumulation”; the “urine levels / clearance into the urine, in words” value was “particularly low urine levels”. In series [1] (Time 35 min), the Blood was 0.136 % dose/g, the G.I. tract is on record as 4.2, the Urine amounted to 16.1 and the inflam muscle turned out to be 0.071 % dose/g. For the same substance, in series [1] (Time 35 min), the Uninfl muscle is listed as 0.022 % dose/g and the “Inflam:Uninfl” value is on record as 3.2.

In series [1] (Time 35 min), “PicSerCys(Acm) Gly RTKPR: chelator PicSerCys(Acm), linking group Gly, peptide RTKPR (Seq ID no: 11); comparison conjugate ({Picolinoyl-Ser-Cys(Acm)}-GRTKPR)” yielded a Blood of 0.169 % dose/g, a G.I. tract of 15.0, a Urine of 45.4 and an inflam muscle of 0.099 % dose/g. In series [1] (Time 35 min), the Uninfl muscle came to 0.033 % dose/g and the “Inflam:Uninfl” value is reported as 3.0.

As for “PicSerCys(Acm) Gly KPPR: chelator PicSerCys(Acm), linking group Gly, peptide KPPR (Seq ID no: 9); comparison conjugate ({Picolinoyl-Ser-Cys(Acm)}-GKPPR)”, in series [1] (Time 45 min), the Blood was found to be 0.220 % dose/g, the Urine stood at 43.5, the inflam muscle turned out to be 0.125 % dose/g and the Uninfl muscle came out at 0.059 % dose/g. For the same substance, the “Inflam:Uninfl” value in series [1] (Time 45 min) is reported as 2.1.

In the case of “labelled tuftsin: naturally occurring tetrapeptide tuftsin TKPR (Seq. ID no:1) labelled with a radionuclide metal (also: labelled with a radionuclide metal)”, in series [2], the “accumulation in non-target tissue (gastrointestinal tract), in words” value is listed as “accumulated in the gastrointestinal tract”.

With “PicSerCys(Acm) Gly TKPR: chelator PicSerCys(Acm), linking group Gly, native tuftsin peptide TKPR (Seq ID no: 1); comparison conjugate ({Picolinoyl-Ser-Cys(Acm)}-GTKPR)”, in series [1] (Time 35 min), the Blood is given as 0.268 % dose/g, the G.I. tract turned out to be 22.8, the Urine came out at 22.8 and the inflam muscle is reported as 0.120 % dose/g. Besides, in series [1] (Time 35 min), the Uninfl muscle worked out at 0.040 % dose/g and the “Inflam:Uninfl” value stood at 3.0.

Regarding “Pic-Ser-Cys(Acm)-Gly-TKPPR (Picolinoyl-SC(Acm)GTKPPR) [PicSerCys(Acm) Gly TKPPR]”, in series [1] (Time 30 min), the Blood is recorded as 0.392 % dose/g, the G.I. tract worked out at 5.08, the Urine is on record as 44.71 and the inflam muscle came to 0.154 % dose/g. In addition, in series [1] (Time 30 min), the Uninfl muscle is reported as 0.052 % dose/g and the “Inflam:Uninfl” value came to 3.6. In series [1] (Time 180 min), this substance returned a Blood of 0.048 % dose/g, a G.I. tract of 3.71, a Urine of 80.62 and an inflam muscle of 0.026 % dose/g. Besides, in series [1] (Time 180 min), the Uninfl muscle amounted to 0.006 % dose/g and the “Inflam:Uninfl” value worked out at 4.7.

Consider “Bz-MA-Ser-Cys-Ser-Gly-Asp-Gly-TKPPR ({Bz‑MA}-SCSGDGTKPPR) [BzMASerCys SGDG- TKPPR]”, for which, in series [1] (Time 35 min), the Blood was found to be 0.483 % dose/g, the Urine worked out at 47.8, the inflam muscle came out at 0.226 % dose/g and the Uninfl muscle is listed as 0.057 % dose/g. Moreover, in series [1] (Time 35 min), the “Inflam:Uninfl” value worked out at 4.0.
